Data reported in patent US20210214435A1 (MorphoSys, published 2021).

T1: human GPVI (full-length) expressed on stably transfected CHO cells (human, UniProt Q9HCN6 21-339)
T1 chain: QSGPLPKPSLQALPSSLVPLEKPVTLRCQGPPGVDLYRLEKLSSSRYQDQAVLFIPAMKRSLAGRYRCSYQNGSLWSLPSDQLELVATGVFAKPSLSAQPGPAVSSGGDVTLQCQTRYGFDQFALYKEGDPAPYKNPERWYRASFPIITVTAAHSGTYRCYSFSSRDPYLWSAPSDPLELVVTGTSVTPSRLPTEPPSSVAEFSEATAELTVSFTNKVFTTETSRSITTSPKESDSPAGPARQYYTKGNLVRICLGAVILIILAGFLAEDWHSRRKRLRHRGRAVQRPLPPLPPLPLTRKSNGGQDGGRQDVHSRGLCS

T2: cynomolgus monkey GPVI (full-length) expressed on stably transfected CHO cells (cynomolgus monkey, UniProt Q9HCN6 21-339 (human entry))
T2 chain: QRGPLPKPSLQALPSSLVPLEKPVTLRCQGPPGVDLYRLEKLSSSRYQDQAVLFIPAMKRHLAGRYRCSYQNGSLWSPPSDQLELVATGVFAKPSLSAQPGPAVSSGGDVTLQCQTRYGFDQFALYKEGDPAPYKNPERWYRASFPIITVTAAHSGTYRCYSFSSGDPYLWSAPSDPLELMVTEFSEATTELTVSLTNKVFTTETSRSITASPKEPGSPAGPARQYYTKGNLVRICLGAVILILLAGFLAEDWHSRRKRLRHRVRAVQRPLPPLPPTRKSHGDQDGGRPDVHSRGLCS

T3: mouse GPVI (full-length) expressed on stably transfected CHO cells (mouse, UniProt P0C191 22-313)
T3 sequence: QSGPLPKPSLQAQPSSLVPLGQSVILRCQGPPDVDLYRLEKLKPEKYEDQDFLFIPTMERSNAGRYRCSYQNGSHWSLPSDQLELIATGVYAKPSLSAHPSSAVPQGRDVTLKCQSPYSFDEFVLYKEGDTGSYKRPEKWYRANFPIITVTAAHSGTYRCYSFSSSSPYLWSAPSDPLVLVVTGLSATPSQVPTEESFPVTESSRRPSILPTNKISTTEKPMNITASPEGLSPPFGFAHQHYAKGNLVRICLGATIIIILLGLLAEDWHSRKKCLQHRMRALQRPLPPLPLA


How the values were obtained:
[1] = biological target: T1, human GPVI (full-length) expressed on …; experiment: Cell ELISA (MSD) on CHO cells expressing GPVI
Method: (§1) CHO cells stably transfected with either human, cynomolgus monkey, or mouse GPVI (SEQ ID NO: 1, SEQ ID NO: 2, SEQ ID NO: 3, respectively and as described in Example 1) were seeded at a density of 5000 cells/well in growth medium on a 96 well high bind plate (Meso Scale Discovery) and cultivated overnight at 37° C. and 5% CO2. Cells were blocked with PBS supplied with 5% BSA and then incubated with Fab (comprising a modified heavy chain constant region) serially diluted to concentrations between 300 nM to 5 pM in PBS supplied with 0.5% BSA. After washing, bound Fab was detected using ECL-conjugated detection antibody directed against human F(ab′)2 fragment (Jackson Immuno Research). MSD read buffer (Meso Scale Discovery) was added to cells prior to readout in a Sector Imager6000 (Meso Scale Discovery). EC50 values were calculated using Prism 5 software (GraphPad).

[2] = biological target: T2, cynomolgus monkey GPVI (full-length) …; experiment: Cell ELISA (MSD) on CHO cells expressing GPVI
Method: as §1

[3] = biological target: T4, cynomolgus monkey GPVI extracellular domain fused at its C-terminus to human IgG1 Fc (GPVI-Fc) (cynomolgus monkey; human); experiment: Competition ELISA (MSD): cynomolgus GPVI-Fc preincubated with Fab, then on coated CRP-XL (competitor)
T4 construct: also called cyGPVI-2; cyGPVI
Method: (§2) 1 or 10 μg/ml of recombinant GPVI collagen substrate (crosslinked collagen-related peptide (CRP-XL (Anaspec, Inc.), rat-tail collagen (Enzo Life Sciences) or VitroCol (Advanced BioMatrix, Inc.) was coated on a MSD-plate over night at 4° C., washed with PBST, blocked for 1 h at RT with PBS supplemented with 0.05% Tween-20 and 3% skim milk powder, and subsequently washed again with PBST. Purified recombinant GPVI antigens (human, cynomolgus monkey or mouse GPVI as prepared in Example 1) diluted in PBS and varying concentrations of Fab (comprising a modified heavy chain constant region) diluted in PBS (final concentration range 200-0.3 μg/ml) were incubated in a polypropylene plate for 30 min at RT. Fab/GPVI-Fc mixture was added to coated collagen substrate for 1 h at RT. After washing with PBST, bound GPVI form different species was detected using an ECL-conjugated detection antibody directed against human Fc (Jackson Immuno Research) for 1 h at RT. MSD read buffer (Meso Scale Discovery) was added prior to readout in a Sector Imager6000 (Meso Scale Discovery).

[4] = biological target: T5, mouse GPVI extracellular domain fused at its C-terminus to human IgG1 Fc (GPVI-Fc) (mouse; human); experiment: Competition ELISA (MSD): mouse GPVI-Fc preincubated with Fab, then on coated rat-tail collagen (competitor)
T5 construct: also called mGPVI; mouse GPVI-Fc
Method: as §2

[5] = biological target: T4, cynomolgus monkey GPVI extracellular …; experiment: Competition ELISA (MSD): cynomolgus GPVI-Fc preincubated with Fab, then on coated rat-tail collagen (competitor)
Method: as §2

[6] = biological target: T6, cynomolgus monkey GPVI on the cell surface of cynomolgus monkey platelets (cynomolgus monkey); experiment: FACS on washed cynomolgus platelets from PRP (one donor), PE-conjugated detection antibody, median fluorescence
T6 construct: whole, on cells; also called GPVI on cynomolgus monkey platelets
Method: Platelet-rich plasma (PRP) from up to 4 donors was prepared by centrifugation of citrated whole blood for 15 min at 150×g without brake. The resulting supernatant was transferred as PRP into a new sample tube without disturbing the underlying leukocyte-rich interphase. After careful washing in Tyrode's buffer supplemented with Prostacyclin 1₂ (PGI2; Epoprostenol-Rotexmedica), platelets were resuspended in Tyrode's/PGI2 and transferred to 96 well V-bottom microtiter plates. Platelets were spiked with Fab (comprising a modified heavy chain constant region) diluted to final concentrations between 0.015-30 μg/ml in Tyrode's/PGI2 and incubated for 30 min at RT. Platelets were carefully washed to remove non-bound Fab and then incubated for 30 min at RT with a Phycoerythrine (PE)-conjugated detection antibody (Jackson ImmunoResearch). After incubation for 30 min at RT, platelets were analyzed by flow cytometry in a FACS Canto II (Becton Dickinson). In the case of Fab directly conjugated with PE (FIG. 1D), incubation with detection antibody was omitted. Data was evaluated using FACS Diva software (Becton Dickinson). EC50 values were calculated using Prism 5 software (GraphPad).

[7] = biological target: T3, mouse GPVI (full-length) expressed on …; experiment: Cell ELISA (MSD) on CHO cells expressing GPVI
Method: as §1

EC50 [1] [nM]	EC50 [2] [nM]	IC50 [3] [nM]	Max. inhibition at 200 nM Fab [%] [3] [%]	IC50 [4] [nM]	Max. inhibition at 200 nM Fab [%] [4] [%]	IC50 [5] [nM]	Max. inhibition at 200 nM Fab [%] [5] [%]	EC50 (read off the curve) [6] [µg/mL]	EC50 [7] [nM]	Binder
2.8	2.09	9.5	100			8.8	99	~0.5		Reference Control Antibody RefFab #1 (humanized GPVI antibody of WO2011073954A2, SANOFI) (Fab, V domains shown, Cloned into mammalian Fab expression vectors; a glycine-serine linker (G4S)2 was added to the C-terminus of the Fab heavy chain) VH: EVQLLESGPGLVAPSGSLSITCTVSGFSLTGYGVNWVRQPPGKGLEWLGMIWGDGSTDYQSTLKSRLSISKDNSKSQVFLKMNSLRTDDTARYYCARDLPMDYWGLGTSVTVSS VL: DIQMTQSPSSLSASVGGRVTITCKASQDINKYIAWYQHKPGKGPSLLIHYTSTLQPGVPSRFSGSGSGRDYSFSISNLQPEDIATYYCLQYANLLTFGGGTKLEIKR
0.77	1.06	9.1	100	5.3	99	7.6	99	~0.6	3.74	Fab #3 comprising a modified heavy chain constant region (Fab, V domains shown, Human Fab from the Ylanthia library; produced in HKB11 cells; also called Fab #3 mod; HC) VH: QVQLVESGGGLVKPGGSLRLSCAASGFSFGDYYVSWIRQAPGKGLEWVSAIGGSGSAVQYAESVKGRFTISRDNAKNSLYLQMNSLRAEDTAVYYCARHYREFRWHYYYFDYWGQGTLVTVSS VL: QSVLTQPPSVSGAPGQRVTISCTGSSSNIGAGYDVHWYQQLPGTAPKLLIYGNSNRPSGVPDRFSGSKSGTSASLAITGLQAEDEADYYCQSHDLGAHVWVFGGGTKLTVLG

Further lines, the binder ahead of its results:

Binder	EC50 [1] [nM]	EC50 [2] [nM]	IC50 [3] [nM]	Max. inhibition at 200 nM Fab [%] [3] [%]	IC50 [4] [nM]	Max. inhibition at 200 nM Fab [%] [4] [%]	IC50 [5] [nM]	Max. inhibition at 200 nM Fab [%] [5] [%]	EC50 (read off the curve) [6] [µg/mL]	EC50 [7] [nM]
Fab #1 comprising a modified heavy chain constant region (Fab, V domains shown, Human Fab from the Ylanthia library; produced in HKB11 cells; also called Fab #1 mod; HC) VH: QVQLVQSGAEVKKPGASVKVSCKASGYTFTSHYMHWVRQAPGQGLEWMGLIEPSEGETEYAQRFQGRVTMTRDTSTSTVYMELSSLRSEDTAVYYCARDSSRSYPLGFDIWGQGTLVTVSS VL: QSVLTQPPSVSAAPGQKVTISCSGSSSNIGNNYVSWYQQLPGTAPKLLIYDNNKRPSGIPDRFSGSKSGTSATLGITGLQTEDEADYYCAAWDFRSSRWVFGGGTKLTVLG	0.89	0.74	11.5	59	17.2	89	9.6	86	~0.4	
Fab #4 comprising a modified heavy chain constant region (Fab, V domains shown, Human Fab from the Ylanthia library; produced in HKB11 cells; also called Fab #4 mod; HC) VH: QVQLVQSGAEVKKPGASVKVSCKASGGAFTSSYMHWVRQAPGQGLEWMGIIEPTGASTLYAQRFQGRVTMTRDTSTSTVYMELSSLRSEDTAVYYCARTGIALPLGFDLWGQGTLVTVSS VL: QSVLTQPPSVSAAPGQKVTISCSGSSSNIGNNYVSWYQQLPGTAPKLLIYDNNKRPSGIPDRFSGSKSGTSATLGITGLQTEDEADYYCAAWSTRFRWVFGGGTKLTVLG	0.78	0.8	11.3	51		87	9.1	83	~0.7	0.93
Fab #2 comprising a modified heavy chain constant region (Fab, V domains shown, Human Fab from the Ylanthia library; produced in HKB11 cells; also called Fab #2 mod; HC) VH: QVQLVESGGGLVKPGGSLRLSCAASGFSFSDHYMSWIRQAPGKGLEWVSSVGSEGKFIDYAASVKGRFTISRDNAKNSLYLQMNSLRAEDTAVYYCARHYREFRWHYYYFDYWGQGTLVTVSS VL: QSVLTQPPSVSGAPGQRVTISCTGSSSNIGAGYDVHWYQQLPGTAPKLLIYGNSNRPSGVPDRFSGSKSGTSASLAITGLQAEDEADYYCQSHDLGAHVWVFGGGTKLTVLG	0.78	1.06	7.9	100	5.7	99	7.1	100	~0.6	8.28
